Assay results from PMC10243991.

Molecular target: GST-MdPP2AC (apple (Malus × domestica Borkh.))
Test: MST; GST-MdPP2AC labelled with RED-NHS dye, 100 nM, in 0.05% PBS Tween buffer; MdSnRK2.6 titrated (3.81 × 10^−4 to 25 nM as printed); Monolith NT.115

## MdSnRK2.6-His (enzyme)
  Kd: 109 nM
